Blank lines part the entries; values can stand above or below the binder they belong to.
Columns and labels:
[1] = molecular target: T1, EGFR on the cell surface (human, UniProt P00533 25-1210); test: flow cytometry on cells, 2 ug/mL
T1 construct: whole, on cells
Description: (§1) Stable cell lines overexpressing a cell-surface antigen of interest or human tumor cell lines were harvested from tissue culture flasks and resuspended in phosphate buffered saline (PBS) containing 5% fetal bovine serum (PBS/FBS). Prior to staining, human tumor cells were incubated on ice with (100 μl) human IgG at 5 μg/ml in PBS/FCS. 1-5×10⁵ cells were incubated with antibody or DVD-Ig (2 μg/mL) in PBS/FBS for 30-60 minutes on ice. […] After 30 minutes incubation on ice, cells were washed twice and resuspended in PBS/FBS. Fluorescence was measured using a Becton Dickinson FACSCalibur (Becton Dickinson, San Jose, Calif.).
(§2) The geometric mean is the n root of the multiplication product of n fluorescent signals (a1×a2×a3 . . . an). With log-transformed data the geometric mean is used to normalize the weighting of the data distribution.

[2] = molecular target: T2, ErbB3 on the cell surface (human, UniProt P21860 20-1342); test: flow cytometry on cells, 2 ug/mL, N-terminal VD
T2 construct: whole, on cells

[3] = molecular target: T1, EGFR on the cell surface; test: flow cytometry on cells, 2 ug/mL, C-terminal VD
Description: as §1, §2
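Further: cells stained for 30 to 60 min on ice.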

GEO MEAN [1]: 439
B1: AB400 (antibody, V domains shown)
VH: EVQLVESGGGLVQPGGSLRLSCAASGFSLTNYGVHWVRQAPGKGLEWLGVGWSGGNTDYNTPFTSRLTINKDNSKNTVYLQMNSLRAEDTAVYYCARALTWYDYEFAYWGQGTLVTVSS
VL: DILLTQSPGTLSLSPGERATLSCRASQSIYTNIHWYQQKPGQAPRLLIKYASESISGIPDRFSGSGSGTDFTLTISRLEPEDFAVYYCQQNLNWPTTFGQGTKLEIKR
notes: parent antibody

GEO MEAN [2]: 135 | GEO MEAN [3]: 106
B2: DVD2297 (bispecific antibody)
VH: QVQLQQWGAGLLKPSETLSLTCAVYGGSFSGYYWSWIRQPPGKGLEWIGEINHSGSTNYNPSLKSRVTISVETSKNQFSLKLSSVTAADTAVYYCARDKWTWYFDLWGRGTLVTVSSASTKGPEVQLVESGGGLVQPGGSLRLSCAASGFSLTNYGVHWVRQAPGKGLEWLGVGWSGGNTDYNTPFTSRLTINKDNSKNTVYLQMNSLRAEDTAVYYCARALTWYDYEFAYWGQGTLVTVSS
VL: DIEMTQSPDSLAVSLGERATINCRSSQSVLYSSSNRNYLAWYQQNPGQPPKLLIYWASTRESGVPDRFSGSGSGTDFTLTISSLQAEDVAVYYCQQYYSTPRTFGQGTKVEIKRTVAAPDILLTQSPGTLSLSPGERATLSCRASQSIYTNIHWYQQKPGQAPRLLIKYASESISGIPDRFSGSGSGTDFTLTISRLEPEDFAVYYCQQNLNWPTTFGQGTKLEIK
notes: DVD-Ig, outer AB062 / inner AB400

From patent US20130195871A1 (AbbVie / Abbott, published 2013)
